# Reference: paper PMC13544220, “Glycemic and bodyweight effects of GIPR coding variation reflect differences in surface expression and intrinsic functional impairment” (Science Advances, 2026)
# Tests used:
# [1] = test system: wild-type and variant SNAP-GIPR; experiment: Surface SNAP-GIPR expression (SNAP-tag labelling) in AD293 cells; assay type: cell-based, human; conditions: level of surface expression, based on in vitro functional data in AD293 cells; summary classification
# Method: Twenty-four hours before the experiment, AD293 or INS-1 cells were reverse transfected with GIPR variant or wild-type plasmids using Lipofectamine 2000 in 96-well, clear-bottom, black microplates precoated with poly-D-lysine. All variants were tested in parallel on each occasion to control for transfection efficiency differences between experiments. Cells were then labeled using the cell-impermeant probe SNAP-Surface Alexa Fluor 647 (500 nM, New England Biolabs, USA) for 10 min at room temperature to label only surface GIPR. […] Several fields of view (FOVs) were acquired within each well using a 20X, 0.75–numerical aperture (NA) air objective. Surface GIPR fluorescence was quantified after flat-field correction using BaSiC ([72]) and segmenting using Phantast ([73]), which generates a mask based on the phase contrast images to demarcate cell versus noncell. Wide-field imaging of the surface-specific labeling achieved by SNAP-Surface probes means that surface expression can be established from whole-cell fluorescence, after subtracting nonspecific fluorescence from a separate well containing nontransfected cells processed in parallel from the same experiment. Data were normalized by dividing by the average specific signal across each experiment, or by the wild-type value, as indicated in the figure legends.
# [2] = test system: wild-type and variant SNAP-GIPR; experiment: Single-concentration GIP cAMP response by HTRF in AD293 cells; assay type: cell-based, human; conditions: cAMP responses to 100 pM GIP in AD293 cells; summary classification (decrease/neutral/increase)
# Method: All variants were tested in parallel on each occasion to control for transfection efficiency differences between experiments.
Molecule,Surface expression [1],cAMP response [2]
"p.Arg131Ser (protein, UniProt P48546 22-466, looked up, variant R131S) Gastric inhibitory …: RAETGSKGQTAGELYQRWERYRRECQETLAAAEPPSGLACNGSFDMYVCWDYAAPNATARASCPWYLPWHHHVAAGFVLRQCGSDGQWGLWRDHTQCENPEKNEAFLDQSLILERLQVMYTVGYSLSLATLLLALLILSLFRRLHCTRNYIHINLFTSFMLRAAAILSRDRLLPRPGPYLGDQALALWNQALAACRTAQIVTQYCVGANYTWLLVEGVYLHSLLVLVGGSEEGHFRYYLLLGWGAPALFVIPWVIVRYLYENTQCWERNEVKAIWWIIRTPILMTILINFLIFIRILGILLSKLRTRQMRCRDYRLRLARSTLTLVPLLGVHEVVFAPVTEEQARGALRFAKLGFEIFLSSFQGFLVSVLYCFINKEVQSEIRRGWHHCRLRRSLGEEQRQLPERAFRALPSGSGPGEVPTSRGLSSGTLPGPGNEASRELESYC",neutral,decrease
"p.Glu252Asp (protein, UniProt P48546 22-466, looked up, variant E252D) Gastric inhibitory …: RAETGSKGQTAGELYQRWERYRRECQETLAAAEPPSGLACNGSFDMYVCWDYAAPNATARASCPWYLPWHHHVAAGFVLRQCGSDGQWGLWRDHTQCENPEKNEAFLDQRLILERLQVMYTVGYSLSLATLLLALLILSLFRRLHCTRNYIHINLFTSFMLRAAAILSRDRLLPRPGPYLGDQALALWNQALAACRTAQIVTQYCVGANYTWLLVEGVYLHSLLVLVGGSDEGHFRYYLLLGWGAPALFVIPWVIVRYLYENTQCWERNEVKAIWWIIRTPILMTILINFLIFIRILGILLSKLRTRQMRCRDYRLRLARSTLTLVPLLGVHEVVFAPVTEEQARGALRFAKLGFEIFLSSFQGFLVSVLYCFINKEVQSEIRRGWHHCRLRRSLGEEQRQLPERAFRALPSGSGPGEVPTSRGLSSGTLPGPGNEASRELESYC",neutral,increase
"p.Arg217Leu (protein, UniProt P48546 22-466, looked up, variant R217L) Gastric inhibitory …: RAETGSKGQTAGELYQRWERYRRECQETLAAAEPPSGLACNGSFDMYVCWDYAAPNATARASCPWYLPWHHHVAAGFVLRQCGSDGQWGLWRDHTQCENPEKNEAFLDQRLILERLQVMYTVGYSLSLATLLLALLILSLFRRLHCTRNYIHINLFTSFMLRAAAILSRDRLLPRPGPYLGDQALALWNQALAACLTAQIVTQYCVGANYTWLLVEGVYLHSLLVLVGGSEEGHFRYYLLLGWGAPALFVIPWVIVRYLYENTQCWERNEVKAIWWIIRTPILMTILINFLIFIRILGILLSKLRTRQMRCRDYRLRLARSTLTLVPLLGVHEVVFAPVTEEQARGALRFAKLGFEIFLSSFQGFLVSVLYCFINKEVQSEIRRGWHHCRLRRSLGEEQRQLPERAFRALPSGSGPGEVPTSRGLSSGTLPGPGNEASRELESYC",decrease,decrease
"p.Arg190Gln (protein, UniProt P48546 22-466, looked up, variant R190Q) Gastric inhibitory …: RAETGSKGQTAGELYQRWERYRRECQETLAAAEPPSGLACNGSFDMYVCWDYAAPNATARASCPWYLPWHHHVAAGFVLRQCGSDGQWGLWRDHTQCENPEKNEAFLDQRLILERLQVMYTVGYSLSLATLLLALLILSLFRRLHCTRNYIHINLFTSFMLRAAAILSQDRLLPRPGPYLGDQALALWNQALAACRTAQIVTQYCVGANYTWLLVEGVYLHSLLVLVGGSEEGHFRYYLLLGWGAPALFVIPWVIVRYLYENTQCWERNEVKAIWWIIRTPILMTILINFLIFIRILGILLSKLRTRQMRCRDYRLRLARSTLTLVPLLGVHEVVFAPVTEEQARGALRFAKLGFEIFLSSFQGFLVSVLYCFINKEVQSEIRRGWHHCRLRRSLGEEQRQLPERAFRALPSGSGPGEVPTSRGLSSGTLPGPGNEASRELESYC",decrease,decrease
"p.Ala268Val (protein, UniProt P48546 22-466, looked up, variant A268V) Gastric inhibitory …: RAETGSKGQTAGELYQRWERYRRECQETLAAAEPPSGLACNGSFDMYVCWDYAAPNATARASCPWYLPWHHHVAAGFVLRQCGSDGQWGLWRDHTQCENPEKNEAFLDQRLILERLQVMYTVGYSLSLATLLLALLILSLFRRLHCTRNYIHINLFTSFMLRAAAILSRDRLLPRPGPYLGDQALALWNQALAACRTAQIVTQYCVGANYTWLLVEGVYLHSLLVLVGGSEEGHFRYYLLLGWGAPVLFVIPWVIVRYLYENTQCWERNEVKAIWWIIRTPILMTILINFLIFIRILGILLSKLRTRQMRCRDYRLRLARSTLTLVPLLGVHEVVFAPVTEEQARGALRFAKLGFEIFLSSFQGFLVSVLYCFINKEVQSEIRRGWHHCRLRRSLGEEQRQLPERAFRALPSGSGPGEVPTSRGLSSGTLPGPGNEASRELESYC",neutral,increase
"p.Arg136Trp (protein, UniProt P48546 22-466, looked up, variant R136W) Gastric inhibitory …: RAETGSKGQTAGELYQRWERYRRECQETLAAAEPPSGLACNGSFDMYVCWDYAAPNATARASCPWYLPWHHHVAAGFVLRQCGSDGQWGLWRDHTQCENPEKNEAFLDQRLILEWLQVMYTVGYSLSLATLLLALLILSLFRRLHCTRNYIHINLFTSFMLRAAAILSRDRLLPRPGPYLGDQALALWNQALAACRTAQIVTQYCVGANYTWLLVEGVYLHSLLVLVGGSEEGHFRYYLLLGWGAPALFVIPWVIVRYLYENTQCWERNEVKAIWWIIRTPILMTILINFLIFIRILGILLSKLRTRQMRCRDYRLRLARSTLTLVPLLGVHEVVFAPVTEEQARGALRFAKLGFEIFLSSFQGFLVSVLYCFINKEVQSEIRRGWHHCRLRRSLGEEQRQLPERAFRALPSGSGPGEVPTSRGLSSGTLPGPGNEASRELESYC",neutral,decrease
"p.Ala207Val (protein, UniProt P48546 22-466, looked up, variant A207V) Gastric inhibitory …: RAETGSKGQTAGELYQRWERYRRECQETLAAAEPPSGLACNGSFDMYVCWDYAAPNATARASCPWYLPWHHHVAAGFVLRQCGSDGQWGLWRDHTQCENPEKNEAFLDQRLILERLQVMYTVGYSLSLATLLLALLILSLFRRLHCTRNYIHINLFTSFMLRAAAILSRDRLLPRPGPYLGDQALVLWNQALAACRTAQIVTQYCVGANYTWLLVEGVYLHSLLVLVGGSEEGHFRYYLLLGWGAPALFVIPWVIVRYLYENTQCWERNEVKAIWWIIRTPILMTILINFLIFIRILGILLSKLRTRQMRCRDYRLRLARSTLTLVPLLGVHEVVFAPVTEEQARGALRFAKLGFEIFLSSFQGFLVSVLYCFINKEVQSEIRRGWHHCRLRRSLGEEQRQLPERAFRALPSGSGPGEVPTSRGLSSGTLPGPGNEASRELESYC",neutral,neutral
"p.Leu262Val (protein, UniProt P48546 22-466, looked up, variant L262V) Gastric inhibitory …: RAETGSKGQTAGELYQRWERYRRECQETLAAAEPPSGLACNGSFDMYVCWDYAAPNATARASCPWYLPWHHHVAAGFVLRQCGSDGQWGLWRDHTQCENPEKNEAFLDQRLILERLQVMYTVGYSLSLATLLLALLILSLFRRLHCTRNYIHINLFTSFMLRAAAILSRDRLLPRPGPYLGDQALALWNQALAACRTAQIVTQYCVGANYTWLLVEGVYLHSLLVLVGGSEEGHFRYYLLVGWGAPALFVIPWVIVRYLYENTQCWERNEVKAIWWIIRTPILMTILINFLIFIRILGILLSKLRTRQMRCRDYRLRLARSTLTLVPLLGVHEVVFAPVTEEQARGALRFAKLGFEIFLSSFQGFLVSVLYCFINKEVQSEIRRGWHHCRLRRSLGEEQRQLPERAFRALPSGSGPGEVPTSRGLSSGTLPGPGNEASRELESYC",neutral,neutral
"p.Arg183Gln (protein, UniProt P48546 22-466, looked up, variant R183Q) Gastric inhibitory …: RAETGSKGQTAGELYQRWERYRRECQETLAAAEPPSGLACNGSFDMYVCWDYAAPNATARASCPWYLPWHHHVAAGFVLRQCGSDGQWGLWRDHTQCENPEKNEAFLDQRLILERLQVMYTVGYSLSLATLLLALLILSLFRRLHCTRNYIHINLFTSFMLQAAAILSRDRLLPRPGPYLGDQALALWNQALAACRTAQIVTQYCVGANYTWLLVEGVYLHSLLVLVGGSEEGHFRYYLLLGWGAPALFVIPWVIVRYLYENTQCWERNEVKAIWWIIRTPILMTILINFLIFIRILGILLSKLRTRQMRCRDYRLRLARSTLTLVPLLGVHEVVFAPVTEEQARGALRFAKLGFEIFLSSFQGFLVSVLYCFINKEVQSEIRRGWHHCRLRRSLGEEQRQLPERAFRALPSGSGPGEVPTSRGLSSGTLPGPGNEASRELESYC",decrease,decrease
"p.Leu262His (protein, UniProt P48546 22-466, looked up, variant L262H) Gastric inhibitory …: RAETGSKGQTAGELYQRWERYRRECQETLAAAEPPSGLACNGSFDMYVCWDYAAPNATARASCPWYLPWHHHVAAGFVLRQCGSDGQWGLWRDHTQCENPEKNEAFLDQRLILERLQVMYTVGYSLSLATLLLALLILSLFRRLHCTRNYIHINLFTSFMLRAAAILSRDRLLPRPGPYLGDQALALWNQALAACRTAQIVTQYCVGANYTWLLVEGVYLHSLLVLVGGSEEGHFRYYLLHGWGAPALFVIPWVIVRYLYENTQCWERNEVKAIWWIIRTPILMTILINFLIFIRILGILLSKLRTRQMRCRDYRLRLARSTLTLVPLLGVHEVVFAPVTEEQARGALRFAKLGFEIFLSSFQGFLVSVLYCFINKEVQSEIRRGWHHCRLRRSLGEEQRQLPERAFRALPSGSGPGEVPTSRGLSSGTLPGPGNEASRELESYC",decrease,decrease
